Results: the Human Domainome abundance scans (Beltran et al. 2025)
± gives the uncertainty stated by the source.

B1: Protein maelstrom homolog, residues 3 to 71; numbered along this chain, Q96JY0 (parent)
chain: NRKASRNAYYFFVQEKIPELRRRGLPVARVADAIPYCSSDWALLREEEKEKYAEMAREWRAAQGKDPGP

Variants of: B1
Assay: abundance fitness (aPCA) (normalised: wild type 0, dead -1); higher = more abundant; growth selection in yeast, the domain comes from the species named
Conditions: Homo sapiens

Abundance fitness: each site, then its substitutions
R29: L -0.032 ± 0.056; F -0.478 ± 0.26; N 0.105 ± 0.11; D 0.148 ± 0.15; W -0.47 ± 0.086; Q 0.041 ± 0.075; S 0.221 ± 0.14; Y -0.101 ± 0.15; G 0.052 ± 0.05; E 0.275 ± 0.065; K 0.178 ± 0.064; I 0.139 ± 0.14; C 0.118 ± 0.1; V 0.049 ± 0.062; M -0.09 ± 0.09
I17: G -0.503 ± 0.064; K -0.687 ± 0.11; W -0.264 ± 0.07; H -0.832 ± 0.24; F -0.323 ± 0.17; M -0.241 ± 0.075; R -0.501 ± 0.062; Q -0.961 ± 0.2; A -0.467 ± 0.084; V -0.166 ± 0.055; L -0.18 ± 0.075; Y -0.818 ± 0.21; P -0.755 ± 0.15; C -0.771 ± 0.23; N -0.797 ± 0.21
D32: A -0.421 ± 0.076; P -0.959 ± 0.23; K -0.869 ± 0.24; G -0.794 ± 0.084; W -1.07 ± 0.15; V -0.952 ± 0.12; E -0.055 ± 0.099; Y -1.09 ± 0.37; C -0.735 ± 0.27; R -0.596 ± 0.1; Q -0.616 ± 0.23; H -0.535 ± 0.37; M -0.835 ± 0.17; S -0.817 ± 0.14; T -0.257 ± 0.2; L -1.05 ± 0.13; F -0.956 ± 0.28
E15: H 0.023 ± 0.28; D -0.241 ± 0.23
K16: W -0.819 ± 0.18; Y -0.697 ± 0.46; M -0.041 ± 0.11; G -0.673 ± 0.1; F -0.555 ± 0.26; S -0.141 ± 0.088; Q -0.028 ± 0.13; N 0.082 ± 0.22; R 0.031 ± 0.082; T -0.375 ± 0.13; C -0.428 ± 0.25; A -0.096 ± 0.12; V -0.41 ± 0.086
V27: T -0.235 ± 0.17; S -0.104 ± 0.087; I -0.319 ± 0.16; Q -1.08 ± 0.21; K -0.744 ± 0.17; F -0.159 ± 0.18; C -0.026 ± 0.1; W -0.584 ± 0.1; G -0.594 ± 0.078; E -0.831 ± 0.15; D -0.738 ± 0.45; R -0.742 ± 0.077; L -0.329 ± 0.062; P -0.73 ± 0.18; M -0.511 ± 0.1; N -0.02 ± 0.21
E19: P -0.733 ± 0.14; Q -0.623 ± 0.13; H -0.54 ± 0.14; S -0.204 ± 0.053; C -0.548 ± 0.15; D -0.093 ± 0.15; K -0.686 ± 0.11; N -0.966 ± 0.47; M -0.303 ± 0.088; L -0.412 ± 0.067; R -0.674 ± 0.058; V -0.25 ± 0.06
A33: L -0.47 ± 0.068; D -0.62 ± 0.28; H -0.279 ± 0.28; S -0.588 ± 0.088; E -0.725 ± 0.2; V -0.541 ± 0.078; F -0.808 ± 0.22; Q -1.05 ± 0.17; M -0.707 ± 0.1; G -0.098 ± 0.06; Y -0.713 ± 0.18; R -0.83 ± 0.083; P -0.654 ± 0.14; T -0.619 ± 0.11; K -0.714 ± 0.18; W -0.665 ± 0.17; C -0.599 ± 0.15
L25: F -0.229 ± 0.35
A28: M -0.319 ± 0.21; S -0.324 ± 0.31
S39: E -0.073 ± 0.097; D 0.07 ± 0.16; C -0.174 ± 0.096; A -0.058 ± 0.065
V30: A -0.286 ± 0.059; D -0.518 ± 0.17; F -0.226 ± 0.14; N -0.559 ± 0.24; C -0.174 ± 0.093; G -0.607 ± 0.061; S -0.238 ± 0.082; I -0.652 ± 0.32; R -0.614 ± 0.053; P 0.113 ± 0.087; W -0.225 ± 0.067; Q -0.567 ± 0.093; K -0.514 ± 0.087; E -0.272 ± 0.068; H -0.17 ± 0.11; Y -0.09 ± 0.13; M -0.164 ± 0.09
F11: I -0.398 ± 0.17; G -0.694 ± 0.18; Q -0.328 ± 0.1; S -0.526 ± 0.077; T -0.38 ± 0.18; V -0.502 ± 0.088; C -0.313 ± 0.22; N -0.512 ± 0.28; L -0.322 ± 0.07; P -0.776 ± 0.16; D -0.705 ± 0.18; M -0.072 ± 0.1; K -0.94 ± 0.2; W -0.371 ± 0.15; Y -0.036 ± 0.13; R -0.674 ± 0.091; H -0.107 ± 0.18; A -0.265 ± 0.075
P18: G -0.31 ± 0.067; L -0.606 ± 0.1; Y -0.673 ± 0.25; N -0.532 ± 0.15; A -0.376 ± 0.067; H -0.019 ± 0.26; R -0.526 ± 0.057; C -0.358 ± 0.1; D -0.313 ± 0.099; V -0.268 ± 0.057; M -0.263 ± 0.097; K -0.498 ± 0.11; I -0.452 ± 0.2; Q -0.338 ± 0.094; T -0.411 ± 0.074; S -0.4 ± 0.071; F -0.286 ± 0.16; E -0.306 ± 0.1
